One assay concerns the target T1, HA-p73α (Homo sapiens, UniProt O15350).
T1 construct: expressed in transfected cells; host or cells: COS7
T1 sequence (O15350 1-636): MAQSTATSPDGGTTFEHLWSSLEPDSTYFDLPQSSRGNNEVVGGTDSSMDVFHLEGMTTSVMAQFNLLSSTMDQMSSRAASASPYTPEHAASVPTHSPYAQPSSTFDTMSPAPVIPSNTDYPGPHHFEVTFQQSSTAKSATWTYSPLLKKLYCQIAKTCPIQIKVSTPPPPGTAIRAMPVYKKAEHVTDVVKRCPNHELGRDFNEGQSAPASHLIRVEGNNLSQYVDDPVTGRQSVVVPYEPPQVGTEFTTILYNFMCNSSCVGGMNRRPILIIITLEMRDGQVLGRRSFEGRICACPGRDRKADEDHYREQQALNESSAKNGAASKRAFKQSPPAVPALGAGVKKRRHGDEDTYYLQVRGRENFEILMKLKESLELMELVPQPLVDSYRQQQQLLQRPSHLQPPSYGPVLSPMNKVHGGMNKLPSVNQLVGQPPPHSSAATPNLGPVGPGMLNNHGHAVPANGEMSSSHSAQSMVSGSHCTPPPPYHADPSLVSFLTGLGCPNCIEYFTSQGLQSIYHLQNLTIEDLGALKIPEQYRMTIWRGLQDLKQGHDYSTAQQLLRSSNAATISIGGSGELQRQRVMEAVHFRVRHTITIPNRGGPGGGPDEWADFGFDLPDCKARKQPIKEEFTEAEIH
In words: Ubiquitination assay in COS7 cells. As to conditions: COS7, HA-p73α and HA-ubiquitin, MG-132 (FIG. 18, 19). The assay is classed as cell-based. The method, then:
COS7 cells were transiently transfected with a constant amount of expression plasmids encoding HA-p73α and HA-Ub in the presence or absence of varying amounts of IKK-α expression plasmids. After […] from the transfection, the cells were exposed for 6 hours to a proteasome inhibitor MG-132 (final concentration: 20 μM), and lysates from the whole cells were first subjected to immunoprecipitation with an anti-p73 monoclonal antibody and then to immunoblot using an anti-HA monoclonal antibody (12CA5; Roche Molecular Biochemicals) to analyze ubiquitination levels.
As described by Lee, C.-W. et al., Oncogene 18: 4171-4181 (1999), the steady-state level of p73 was regulated at least partially by the proteolytic process through the ubiquitin-proteasome pathway. Whether IKK-α inhibited the ubiquitination of p73 was investigated. COS7 cells were transfected with expression plasmids for HA-p73α and HA-ubiquitin together with or without varying amounts of IKK-α or FLAG-IKK-β expression plasmids. After 48 hours of the transfection, lysates from the whole cells were analyzed by immunoprecipitation and immunoblot and examined for the presence of p73α containing HA-ubiquitin.

For the next assay, the system named is H1299 cells. The assay can be described thus: Apoptosis assay (trypan blue / Red-Gal double staining), p73α-dependent. The assay is classed as cell-based, human. As to conditions: H1299, coexpression with HA-p73α, 48 hours (FIG. 25-27). The method, then:
To detect apoptosis via p73α and IKK overexpression, H1299 cells were seeded at a density of 1.5×10^4 cells/well onto a 6-well tissue culture dish. Next day, the cells were transiently transfected with 50 ng of β-galactosidase expression plasmid and 50 ng of HA-p73α expression plasmid in the presence or absence of varying amounts of IKK-α or IKK-β expression vectors (100, 200, or 400 ng). After 48 hours of the transfection, the cells were washed with ice-cold PBS and stained at room temperature for 10 minutes with 0.4% trypan blue (PBS solution). Then, the cells were washed twice with PBS, then fixed for 10 minutes in PBS containing 2.5% glutaraldehyde, 1 mM magnesium chloride, and 2 mM EGTA, and stained for 2 hours with Red-Gal (Research Organics) according to the method described in Bayon, Y. et al., Mol. Cell. Biol. 23: 1061-1074 (2003). Red-Gal was used as a marker for visualizing the transfected cells to evaluate the degree of apoptosis occurring in the transfectants. […] Results were indicated by an average of three independent transfections (each performed three times or more).
Potential effect(s) of IKK-α on p73-dependent biological functions such as the regulation of apoptosis was examined. […] After 48 hours of the transfection, the cells were subjected to double staining with trypan blue (nonviable cells) and Red-Gal (transfected cells), and the number of purple cells was scored.

Another assay concerns p53. The assay can be described thus: p53 protein level (stabilization) by immunoblot in cotransfected COS7 cells. The assay is classed as cell-based. The note with it: COS7 cotransfection (FIG. 14, 15). The procedure: Cells were transiently transfected with a total of 2 μg of expression plasmids. After 48 hours of the transfection, the cells were washed with ice-cold PBS and suspended in lysis buffer (pH 8.0; which contained 25 mM Tris-Cl, 137 mM sodium chloride, 1% Triton X-100, 1 mM phenylmethylsulfonyl fluoride (PMSF), and protease inhibitor mix (Roche Molecular Biochemicals)), followed by brief sonication. After centrifugation at 15000 rpm for 10 minutes, the supernatant was collected and assayed for protein concentrations by the Bradford assay (Bio-Rad). Equal amounts of lysates (protein amount: 50 μg) from the whole cells were denatured by boiling in Laemmli SDS-sample buffer, then separated on 10% SDS-polyacrylamide gel (SDS-PAGE), and transferred at room temperature for 1 hour to polyvinylidene difluoride (PVDF) membranes (Immobilon-P; Millipore) in Tris-glycine buffer containing 10% methanol. The membranes were blocked at room temperature for 1 hour with Tris-buffered saline (TBS-T) containing 5% skim milk and 0.1% Tween 20.
As previously reported, some protein kinases (e.g., c-Abl and PKCδ) that interact with p73 can stabilize p73. To confirm whether IKK-α influenced the stabilization of p73, COS7 cells were transfected with a constant amount of HA-p73α expression plasmid together with or without varying amounts of IKK-α expression plasmids and examined for HA-p73α protein levels. […]

B1: IKK-α: IKK-α protein, amino acid sequence SEQ ID NO: 24, expressed from plasmid; apoptosis enhancer (protein, listed as Homo sapiens)
chain: MERPPGLRPGAGGPWEMRERLGTGGFGNVCLYQHRELDLKIAIKSCRLELSTKNRERWCHEIQIMKKLNHANVVKACDVPEELNILIHDVPLLAMEYCSGGDLRKLLNKPENCCGLKESQILSLLSDIGSGIRYLHENKIIHRDLKPENIVLQDVGGKIIHKIIDLGYAKDVDQGSLCTSFVGTLQYLAPELFENKPYTATVDYWSFGTMVFECIAGYRPFLHHLQPFTWHEKIKKKDPKCIFACEEMSGEVRFSSHLPQPNSLCSLIVEPMENWLQLMLNWDPQQRGGPVDLTLKQPRCFVLMDHILNLKIVHILNMTSAKIISFLLPPDESLHSLQSRIERETGINTGSQELLSETGISLDPRKPASQCVLDGVRGCDSYMVYLFDKSKTVYEGPFASRSLSDCVNYIVQDSKIQLPIIQLRKVWAEAVHYVSGLKEDYSRLFQGQRAAMLSLLRYNANLTKMKNTLISASQQLKAKLEFFHKSIQLDLERYSEQMTYGISSEKMLKAWKEMEEKAIHYAEVGVIGYLEDQIMSLHAEIMELQKSPYGRRQGDLMESLEQRAIDLYKQLKHRPSDHSYSDSTEMVKIIVHTVQSQDRVLKELFGHLSKLLGCKQKIIDLLPKVEVALSNIKEADNTVMFMQGKRQKEIWHLLKIACTQSSARSLVGSSLEGAVTPQTSAWLPPTSAEHDHSLSCVVTPQDGETSAQMIEENLNCLGHLSTIIHEANEEQGNSMMNLDWSWLTE
For the molecule B1, the “amount of ubiquitinated p73α” value in the assay with HA-p73α is “decreased”. For the same molecule, the “number of cells undergoing p73α-dependent apoptosis” value with H1299 cells was “increased the number of cells undergoing apoptosis”. The “stabilization of p53” value with p53 is listed as “no detectable effect on the stabilization of FLAG-p53”.

The values are drawn from patent US7618787B2, “Method of screening compound capable of accelerating or inhibiting apoptosis, apoptosis accelarator and apoptosis inhibitor” (Hisamitsu Pharmaceutical Co., Inc., priority 2004, dated 2009).
